Measured values from patent publication EP4740958A1 (QILU PHARMACEUTICAL CO., LTD., dated 2026).

Molecular target: T1, recombinant human CCR8 protein (human, UniProt P51685 1-355, limits assumed)
T1 construct: Recombinant protein fixed on a CM5 chip by amino coupling (about 15 RU); also called human CCR8 recombinant protein
Assay: SPR (Biacore 8K), CCR8 fixed on CM5 chip by amino coupling, antibody 1 nM-31.25 pM as analyte, 1:1 model

T1 sequence (P51685 whole entry): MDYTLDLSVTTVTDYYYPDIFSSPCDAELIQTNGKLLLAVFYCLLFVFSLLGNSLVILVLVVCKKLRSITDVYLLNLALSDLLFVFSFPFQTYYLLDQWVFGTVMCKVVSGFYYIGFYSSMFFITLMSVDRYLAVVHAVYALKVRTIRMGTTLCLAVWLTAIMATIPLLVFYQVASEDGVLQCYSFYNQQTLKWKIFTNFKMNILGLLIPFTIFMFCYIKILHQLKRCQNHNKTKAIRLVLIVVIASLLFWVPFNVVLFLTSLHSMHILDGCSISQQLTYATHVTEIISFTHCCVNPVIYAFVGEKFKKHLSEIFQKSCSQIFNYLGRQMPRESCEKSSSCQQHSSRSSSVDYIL

Kd: 7.77 pM
koff: 0.000131 s⁻¹
kon: 1.69e+07 M⁻¹ s⁻¹
B1: anti-human CCR8 monoclonal antibody J06 (antibody, human IgG1, kappa, V domains shown)
VH: EVQLVESGGGVVQPGRSLRLSCAASGFPFEPFAMNWVRQAPGKGLEWVARIRSKANNYATYYADSVKDRFAISRDNSKRTLYLLMHSLRFEDTAVYYCVRGRENNYGYAMDYWGQGTTVTVSS
VL: DVVMTQSPPSLPVTLGQSASISCRSSQSLLHSNGITYLYWFLQRPGQSPRLLIYRMSNLASGVPDRFSGSGSGTDFTLRISRVEAEDVGVYYCMQHLTYPFTFGIGTKVEIKR
notes: also called J06 preparation; anti-CCR8 Mab 1187
